2 molecules from publication PMC11094138 (2024) can be followed below.

The experiment deals with WDR5^22–334 (human, UniProt P61964 22-334). Put plainly: ITC. (In general: ITC needs no label: the signal is the heat of the interaction.)

Take GSRRAEVHLRK [MLL1^3762–3772_A3764R]: the Kd (usually a measure of binding affinity in units of concentration) worked out at 2000 nM.
Turning to GSARAEVHLRK [MLL1 WIN motif MLL1^3762–3772], the affinity, expressed as Kd, was 1800 nM.
